Data on eight molecules can be found in paper PMC12572374, “Regulation of ADP-ribosyltransferase activity by ART domain dimerization in PARP15” (Nature Communications, 2025).

Residue numbers refer to the chain shown, from its start. Names may count otherwise.

Data set [1] concerns the target T1, PARP15 (Homo sapiens, UniProt Q460N3, R576E).
T1 construct: ART domain, Asn481-Ala678
T1 sequence (Q460N3 481-678 R576E): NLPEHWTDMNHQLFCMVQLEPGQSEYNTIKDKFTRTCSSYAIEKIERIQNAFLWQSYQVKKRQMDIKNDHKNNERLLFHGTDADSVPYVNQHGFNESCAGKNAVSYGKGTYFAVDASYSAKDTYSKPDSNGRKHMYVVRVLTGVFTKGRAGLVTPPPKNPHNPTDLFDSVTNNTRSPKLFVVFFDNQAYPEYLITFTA
In words: X-ray crystal structure; also nanoDSF thermal shift. Type of data set: binding.

For data set [2], the target named is T2, PARP15 (Homo sapiens, UniProt Q460N3, R576D).
T2 construct: ART domain, Asn481-Ala678
T2 sequence (Q460N3 481-678 R576D): T1 sequence (Q460N3 481-678 R576E) with E96D
In words: nanoDSF thermal shift at […] ligand. Format: binding. (In general: DSF heats the sample and reads unfolding from a dye or from intrinsic fluorescence.)

The target in data set [3] is T1, PARP15. In words: ITC; also HDX-MS. Type of data set: binding. For orientation: In ITC the heat of successive injections is recorded.
For data set [4], the target named is T3, PARP15 (Homo sapiens, UniProt Q460N3).
T3 construct: ART domain, Asn481-Ala678
T3 sequence (Q460N3 481-678): T1 sequence (Q460N3 481-678 R576E) with E96R
In words: ITC; also HDX-MS. Type of data set: binding.

The target in another data set is T4, PARP10 (Homo sapiens, UniProt Q53GL7).
T4 construct: ART domain, Asn819-Val1007
T4 sequence (Q53GL7 819-1007): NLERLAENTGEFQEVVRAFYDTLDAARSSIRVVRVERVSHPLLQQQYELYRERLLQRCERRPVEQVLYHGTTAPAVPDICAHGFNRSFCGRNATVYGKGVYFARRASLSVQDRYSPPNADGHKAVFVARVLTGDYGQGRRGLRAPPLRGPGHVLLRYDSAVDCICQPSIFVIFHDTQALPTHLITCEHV
Description: auto-MARylation assay with purified enzyme (MacroGreen overlay). Format: biochemical.

Data set [5] deals with the molecule itself. In words: HDX-MS; 2 mg/ml m2-ART in 50 mM TBS pH 7.4, labelling 0-9000 s at 20 °C.
For data set [6], the target named is T5, human PARP15 ART domain (Asn481-Ala678), wild type (human) (UniProt Q460N3).
T5 sequence: T1 sequence (Q460N3 481-678 R576E) with E96R

Data set [7] deals with the molecule itself. Description: AUC; sedimentation velocity, 0.5 µM PARP15 ART, 58,000 rpm, measured at 220 nm; Discrete Model Genetic Algorithm fit, 100 Monte Carlo iterations; no NAD+ treatment; dimer to monomers.
Data set [8] concerns the molecule itself. Description: AUC; sedimentation velocity at 9 µM protein, auto-MARylated and unmodified ART; 20 mM sodium phosphate pH 7, 150 mM NaCl; van Holde-Weischet analysis.
Data set [9] deals with the molecule itself. Description: AUC; sedimentation velocity at 0.5 µM ART domain, 58,000 rpm for 5 h, measured at 220 nm, no NAD+; discrete model genetic algorithm (DMGA) analysis; dimer to monomers.
Data set [10] deals with the molecule itself. Description: SEC-MALS; SEC-RALS/LALS (OMNISEC), Superdex 200 Increase 10/300 GL; 120 µl at 0.75 mg/ml PARP15 constructs, 0.35 mg/ml PARP14 ART, 0.65 mg/ml PARP10 ART; 50 mM HEPES pH 7.5, 300 mM NaCl, 1 mM TCEP. (Size exclusion chromatography separates by hydrodynamic size, large species first.)

As for `NC(=O)c1cccc(N)c1` [3-aminobenzamide], on PARP15 [1], the “X-ray crystal structure; also nanoDSF thermal shift” value was “we crystallized the monomeric R576E mutant in complex with the nicotinamide analog 3-aminobenzamide (3AB)”. In addition, the “nanoDSF thermal shift at 1 mM ligand” value at PARP15 [2] was “thermal stabilities and ligand-induced Tm-shifts indicated they were properly folded”.
What is called Kd is the constant that tells how readily two partners part at equilibrium. The low end stands for a tighter complex, the high end for a looser complex. In the case of `Nc1ncnc2c1ncn2[C@@H]1O[C@H](C(=O)N2CCN(CC(=O)Nc3cccc4c3CNC4=O)CC2)[C@@H](O)[C@H]1O` [EB-47], the results for the Kd at PARP15 [3] and on PARP15 [4] were 47 µM and 24 µM, respectively.
Consider `NC(=O)c1ccc[n+]([C@@H]2O[C@H](COP(=O)([O-])OP(=O)(O)OC[C@H]3O[C@@H](n4cnc5c(N)ncnc54)[C@H](O)[C@@H]3O)[C@@H](O)[C@H]2O)c1` [NAD+], for which the “auto-MARylation assay with purified enzyme (MacroGreen overlay)” value on PARP10 is given as “PARP10 ART domain auto-modification increased in a roughly linear fashion over the entire concentration range”.

B1: PARP15 macrodomain-2 + ART domain construct (m2-ART; Gly287-Ala678) (domain or fragment, human, UniProt Q460N3 287-678, looked up)
chain: GTVSKPCFTAYEMKIGAITFQVATGDIATEQVDVIVNSTARTFNRKSGVSRAILEGAGQAVESECAVLAAQPHRDFIITPGGCLKCKIIIHVPGGKDVRKTVTSVLEECEQRKYTSVSLPAIGTGNAGKNPITVADNIIDAIVDFSSQHSTPSLKTVKVVIFQPELLNIFYDSMKKRDLSASLNFQSTFSMTTCNLPEHWTDMNHQLFCMVQLEPGQSEYNTIKDKFTRTCSSYAIEKIERIQNAFLWQSYQVKKRQMDIKNDHKNNERLLFHGTDADSVPYVNQHGFNRSCAGKNAVSYGKGTYFAVDASYSAKDTYSKPDSNGRKHMYVVRVLTGVFTKGRAGLVTPPPKNPHNPTDLFDSVTNNTRSPKLFVVFFDNQAYPEYLITFTA
notes: PARP15, human, macrodomain-2 and ART domain, residues Gly287-Ala678 of the canonical isoform (isoform 1); synthetic gene, codon optimised for E. coli, in pET151/TOPO; also called PARP15 m2-ART; PARP15 isoform-2 (m2-ART); source: E. coli BL21(DE3), purified (HiTrap TALON, Superdex 200 SEC, HiTrap SP XL cation exchange)
With B1, the binding result in [5] is reported as “binds”.

B2: PARP15 ART domain (Asn481-Ala678) H559Y, catalytically inactive (domain or fragment)
chain: T1 sequence (Q460N3 481-678 R576E) with H79Y, E96R
In turn, B2 yielded an MARylation of plate-bound PARP15 macrodomain-2 by 250 nM wild-type ART with increasing H559Y (2-fold dilution series from 2 µM), MacroGreen overlay in [6] of 500 nM.

B3: human PARP15 ART domain (Asn481-Ala678), wild type (domain or fragment, UniProt Q460N3 481-678, looked up)
chain: T1 sequence (Q460N3 481-678 R576E) with E96R
notes: PARP15 (protein mono-ADP-ribosyltransferase PARP15), human, ART domain, residues Asn481-Ala678 of the canonical isoform (isoform 1); No tag cleavage is described; not copied; also called PARP15 ART WT; WT PARP15; source: E. coli BL21(DE3), purified (TALON IMAC, Superdex 75 SEC)
Molecule B3 showed a Kd in data set [7] of 0.313 µM.

B4: auto-MARylated PARP15 ART domain (Asn481-Ala678) (domain or fragment, human, UniProt Q460N3 481-678, looked up)
chain: T1 sequence (Q460N3 481-678 R576E) with E96R
modifications: mono-ADP-ribosylated by auto-modification with NAD+; sites not stated
notes: PARP15, human, ART domain, residues Asn481-Ala678 of the canonical isoform; same construct as m1 after auto-MARylation; source: E. coli BL21(DE3), purified; 40 µM incubated with 100 µM NAD+ for 1 h, NAD+ removed on a desalting column
With B4, the binding result in data set [8] is reported as “binds”.

B5: human PARP15 ART domain (Asn481-Ala678), wild type (domain or fragment, UniProt Q460N3 481-678, looked up)
chain: T1 sequence (Q460N3 481-678 R576E) with E96R
notes: PARP15, human, ADP-ribosyltransferase (ART) domain, residues Asn481-Ala678; numbers count on the canonical isoform (isoform 1); cDNA in pNIC-Bsa4 (GenBank EF198106 is the vector); also called PARP15 ART WT; WT PARP15; source: E. coli BL21(DE3), purified (HiTrap TALON, Superdex 75 SEC)
Broadly, the stoichiometry N is a count of units in the complex or per binding partner. The molecule B5 yielded a Kd in data set [9] of 0.313 µM. Also, in [10], the “stoichiometry N” value is 2.
